This passage reports KM results from US20210255174.

For data set [1], the system named is Control peptide #112: [5-Fam]TRIDEANQRATK[DABCYL]-Hex.
The test system of data set [2] is Control peptide #113: [4-Mu]TRIDEANQRATK[DABCYL]-Hex.

Broadly, the KM is the concentration of substrate that gives half-maximal velocity. As to Trypsin, the Michaelis constant (KM) in data set [1] was determined as 3.75 µM; in data set [2], 13.3 µM.
